{"source": "patent US20170224836A1", "about": "(Novartis, published 2017)", "binders": {"B1": {"name": "NOV0712 (antibody, human IgG1, kappa, V domains shown)", "VH": "QVQLLESGGGLVQPGGSLRLSCAASGFTFSSHGMHWVRQAPGKGLEWVSVISGSGSNTGYADSVKGRFTISRDNSKNTLYLQMNSLRAEDTAVYYCARQWGSYAFDSWGQGTLVTVSS", "VL": "DIQMTQSPSSLSASVGDRVTITCRASQSISSYLNWYQQKPGKAPKLLIYAVSTLQSGVPSRFSGSGSGTDFTLTISSLQPEDFATYYCQQSGTFPPTTFGQGTKVEIKR"}}, "key": {"hCDH6aa54-615 APPavi [1]": {"biological_target": "T1, hCDH6aa54-615 APPavi (human, UniProt P55285 54-615)", "T1 sequence": "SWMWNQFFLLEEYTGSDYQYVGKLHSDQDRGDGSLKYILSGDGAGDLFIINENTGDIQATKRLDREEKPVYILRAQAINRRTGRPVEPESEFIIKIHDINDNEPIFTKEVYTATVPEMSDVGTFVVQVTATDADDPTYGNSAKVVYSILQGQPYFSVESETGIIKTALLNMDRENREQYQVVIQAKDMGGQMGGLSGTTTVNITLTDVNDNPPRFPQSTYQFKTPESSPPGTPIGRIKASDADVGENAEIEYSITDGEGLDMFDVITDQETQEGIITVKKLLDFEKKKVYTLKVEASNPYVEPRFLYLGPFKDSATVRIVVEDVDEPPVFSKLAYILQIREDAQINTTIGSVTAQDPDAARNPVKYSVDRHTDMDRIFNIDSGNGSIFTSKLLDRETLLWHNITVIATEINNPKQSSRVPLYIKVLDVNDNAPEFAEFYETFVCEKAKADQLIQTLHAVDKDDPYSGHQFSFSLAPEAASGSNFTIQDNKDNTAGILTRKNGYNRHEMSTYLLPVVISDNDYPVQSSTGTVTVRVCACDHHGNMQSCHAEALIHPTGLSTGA", "assay": "SPR binning"}, "hCDH6aa54-615 APPavi [2]": {"biological_target": "T1, hCDH6aa54-615 APPavi", "assay": "SPR binning", "remark": "listed apart in the source"}}, "note": "Where two headings read alike, the source gives them in different places.", "data": [{"binder": "B1", "values": [{"measurement": "response of secondary antibody on primary antibody-CDH6 complex", "setting": "hCDH6aa54-615 APPavi [1]", "result": -1.82}, {"measurement": "response of secondary antibody on primary antibody-CDH6 complex", "setting": "hCDH6aa54-615 APPavi [2]", "result": 6}]}]}
